The test system of data set [1] is Ls7β-HSDH. In words: NADH consumption at […] nm, Michaelis-Menten. Particulars: 0.5 mM NADH, 50 mM KPi pH 8.0, 10% methanol, 25 °C. Type of data set: biochemical, Levilactobacillus spicheri.
For data set [2], the system named is Ls7β-HSDH. In words: NADH formation at […] nm, fit with substrate inhibition. As to conditions: 2.0 mM NAD+, 50 mM KPi pH 8.0, 10% methanol, 25 °C. Type of data set: biochemical, Levilactobacillus spicheri.
Data set [3] has as its system Ls7β-HSDH. The data set is described as above. Type of data set: biochemical, Levilactobacillus spicheri. Particulars: read-out: UDCA / K m / [mmol L^-1]; 2.0 mM NAD+, 50 mM KPi pH 8.0, 10% methanol, 25 °C.
Data set [4] concerns the target T1, Cs7β-HSDH (Clostridium sardiniense, UniProt G9FRD6).
T1 sequence (G9FRD6 1-261): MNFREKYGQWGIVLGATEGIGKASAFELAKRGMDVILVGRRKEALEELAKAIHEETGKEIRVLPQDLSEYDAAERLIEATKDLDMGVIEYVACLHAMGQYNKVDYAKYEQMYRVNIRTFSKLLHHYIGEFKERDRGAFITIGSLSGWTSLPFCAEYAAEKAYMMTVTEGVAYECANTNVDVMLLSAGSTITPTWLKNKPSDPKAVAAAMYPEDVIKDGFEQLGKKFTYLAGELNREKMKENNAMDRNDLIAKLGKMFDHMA
Put plainly: NADPH formation at […] nm, fit with substrate inhibition. Type of data set: biochemical. Particulars: 2.0 mM NADP+, 50 mM KPi pH 8.0, 10% methanol, 25 °C.

Data set [5] has as its target T1, Cs7β-HSDH. The description is as above. Type of data set: biochemical. As to conditions: 1.0 mM UDCA, 50 mM KPi pH 8.0, 10% methanol, 25 °C.
Substrate in data set [6]: [H][C@]12CC(=O)[C@@]3([H])[C@]4([H])CC[C@H]([C@H](C)CCC(=O)O)[C@@]4(C)CC[C@]3([H])[C@@]1(C)CC[C@@H](O)C2
Put plainly: purified protein. As to conditions: 0.5 mM NADPH, 50 mM KPi pH 8.0, 10% methanol, 25 °C.

Substrate in data set [7]: C[C@H](CCC(=O)O)[C@H]1CC[C@H]2[C@@H]3[C@@H](O)C[C@@H]4C[C@H](O)CC[C@]4(C)[C@H]3CC[C@]12C
Put plainly: purified protein. As to conditions: 2.0 mM NADP+, 50 mM KPi pH 8.0, 10% methanol, 25 °C.

Substrate in data set [8]: C[C@H](CCC(=O)O)[C@H]1CC[C@H]2[C@@H]3C(=O)C[C@@H]4C[C@H](O)CC[C@]4(C)[C@H]3C[C@H](O)[C@]12C
Put plainly: purified protein. As to conditions: 0.5 mM NADPH, 50 mM KPi pH 8.0, 10% methanol, 25 °C.

The values that follow come from article PMC6681466 (Chemsuschem, 2018).

For `C[C@H](CCC(=O)O)[C@H]1CC[C@H]2[C@@H]3C(=O)C[C@@H]4C[C@H](O)CC[C@]4(C)[C@H]3C[C@H](O)[C@]12C` [7-oxo-DCA], the Km in data set [1] (read-out: 7-oxo-DCA / K m / [mmol L^-1]) stood at 131 ± 28 µM.

For `C[C@H](CCC(=O)O)[C@H]1CC[C@H]2[C@@H]3[C@@H](O)C[C@@H]4C[C@H](O)CC[C@]4(C)[C@H]3CC[C@]12C` [UDCA], the “UDCA / K i /” value turned out to be 800 ± 300 µM in data set [2] and 1400 ± 300 µM in data set [4]. In addition, the Km in data set [3] turned out to be 156 ± 51 µM.

Consider `NC(=O)c1ccc[n+]([C@@H]2O[C@H](COP(=O)(O)OP(=O)(O)OC[C@H]3O[C@@H](n4cnc5c(N)ncnc54)[C@H](OP(=O)(O)O)[C@@H]3O)[C@@H](O)[C@H]2O)c1` [NADP^+], for which, in data set [5], the “NADP^+ / K i /” value was found to be 10000 ± 3000 µM.

Consider `C[C@H](CCC(=O)O)[C@H]1CC[C@H]2[C@@H]3C(=O)C[C@@H]4C[C@H](O)CC[C@]4(C)[C@H]3CC[C@]12C` [7-oxo-LCA], for which, in data set [1] (read-out: 7-oxo-LCA / K m / [mmol L^-1]), the Km worked out at 38 ± 14 µM.

B1: Cs7β-HSDH (Clostridium sardiniense) (protein)
chain: T1 sequence (G9FRD6 1-261)
Turning to B1, in data set [6], the Km was determined as 128 ± 27 µM, the kcat (commonly the maximal rate divided by the concentration of active sites) stood at 1.37 s⁻¹ and the kcat/Km (usually the turnover number divided by the Michaelis constant) was 10700 M⁻¹ s⁻¹. Besides, in data set [7], the Km stood at 160 ± 30 µM, the kcat was determined as 3.61 ± 0.34 s⁻¹ and the kcat/Km is 22600 M⁻¹ s⁻¹. In data set [8], the Km was determined as 106 ± 5 µM, the kcat was 2.27 ± 0.03 s⁻¹ and the kcat/Km stood at 21300 M⁻¹ s⁻¹.
